According to a protein production outcome set (Wang et al. 2014):

Experiment: label from the status in PepcDB records

| Sequence | protein production |
| --- | --- |
| MNIVSQLSPVTLSPELIARFTAIVGDKHALTDPLELEAYITEERNLYRGHSPLVLRPGSTEEVVAICKLANEARVALVPQGGNTGLVGGQTPHNGEVVISLKRMDKIREIDTSSNTITVEAGAILQRVQEKAAEVDRLFPLSLGAQGSCTIGGNLSTNAGGTAALAYGLARDMALGVEVVLADGRVMNLLSKLKKDNTGYDLRDLFIGAEGTLGIITAATLKLFPKPRAVETAFVGLQSPDDALKLLGIAQGEAAGNLTSFELIAETPLDFSVRHANNRDPLEARYPWYVLIELSSPRDDARAALESILERGFEDGIVVDAAIANSVQQQQAFWKLREEISPAQKPEGGSIKHDISVPVAAVPQFIEQANAAVVALIPGARPVPFGHLGDGNIHYNVSQPVGADKAEFLARWHDVSQVVFEVVLRLGGSISAEHGIGVMKRDELAEVKDKTAIELMRSIKALLDPHGIMNPGKVV | not failed |
| MNKAITVIVWLLVSLCVLAIITMPVSLQTHLVATAISLILLATIKSFNGQGAWRLVALGFGTAIVLRYVYWRTTSTLPPVNQLENFIPGFLLYLAEMYSVVMLGLSLVIVSMPLPSRKTRPGSPDYRPTVDVFVPSYNEDAELLANTLAAAKNMDYPADRFTVWLLDDGGSVQKRNAANIVEAQAAQRRHEELKKLCEDLDVRYLTRERNVHAKAGNLNNGLAHSTGELVTVFDADHAPARDFLLETVGYFDEDPRLFLVQTPHFFVNPDPIERNLRTFETMPSENEMFYGIIQRGLDKWNGAFFCGSAAVLRREALQDSDGFSGVSITEDCETALALHSRGWNSVYVDKPLIAGLQPATFASFIGQRSRWAQGMMQILIFRQPLFKRGLSFTQRLCYMSSTLFWLFPFPRTIFLFAPLFYLFFDLQIFVASGGEFLAYTAAYMLVNLMMQNYLYGSFRWPWISELYEYVQTVHLLPAVVSVIFNPGKPTFKVTAKDESIAEARLSEISRPFFVIFALLLVAMAFAVWRIYSEPYKADVTLVVGGWNLLNLIFAGCALGVVSERGDKSASRRITVKRRCEVQLGGSDTWVPASIDNVSVHGLLINIFDSATNIEKGATAIVKVKPHSEGVPETMPLNVVRTVRGEGFVSIGCTFSPQRAVDHRLIADLIFANSEQWSEFQRVRRKNPGLIRGTAIFLAIALFQTQRGLYYLVRARRPAPKSAKPVGAVK | failed |
| MNKAVETRLNKSRPGGWIPRDGAHIERWIRRIKHYVTQQPRALVPPIAELRDLVHANPALHAQAEAMFKEAWRHKHLTPLGQPEVRSFEEFLGLLNGIMTTAPEAYQDIPSHEPSGLIGFPINALLDWPMATQSGYHFFANALINQQFKKILDYWAQFLQSPASRYVLNEPVSRLDQETLVVPWLGKVAKAEMVKVANEAVGEGPNPTPGSFEQIFECEPAAEYHGFSCWDDFFTRRFRAGVRPVSAPTDDGVIVNACESAPLQVRKEVSRSDQFWLKGQPYSLDNMLDFDDLAPRFEGGTVYQAFLSALSYHRWHSPVSGTIRKVRIVNGTYYLENQFEGFADPQGADPSAPNNSQPFLTSVATRALIFIEADNPKIGLMCVVPVGMAEVSSCEITVQAGDRVQKGDPLGMFHFGGSTHCLLFRPGVRLEFDFHGQIPGLDATNMRLNTAIARVK | failed |
| MNKEQLQQMRQAPGFVGALDQSGGSTPKALKAYGIQPDAYQSEEEMFDLIHQMRTRMITSPAFATGKIIGVILFERTMRGKIEGMPTADFLWEKRHIVPFLKVDKGLQDEANGVQLMKPFPELGKLCEEAVGYHVFGTKMRSVIKQANEQGIRDIVEQQFQWGKEILSHGLVPILEPEVDIHCPEKAKAEEILKRELLAQLDKMTEPVMLKITIPTVDNFYKEIIEHPMMLRVVALSGGYSREQANELLSRNHGVIASFSRALVEGLSARQTDAEFNAMLEASIEDVYQASIK | not failed |
| MNKFKLGSDFDHLVNSLSDVELLNLFIQSCSQTTINGVPVPRFPPEEIQKQFVGASYEHALYEAYLFYRHIKEYAQNLGVPLNKESKVLDFGCGWGRIIRFLFKDASDQNLLGIDVDPAMITLCNETLGRGIYKTASPHPPVEFISDNSLDIIFAYSVFSHLSEATAENWVKEFSRVLRPGGIFIATTQARYFLDFCQQFQEHPELIQTGWHKTLSQAFPDIHRAISDYENGKFVHSPTGAGDVRNSSFYGETVIPRTYIENHYEKYLKLQDFFDDVNRLPQALFVLQKILEHHHHHH | not failed |
| MNKGKFALLFTFAACFAVIVFFWLLAVPPENFTADRIVMVLLISPIFAILLAFNLSRFLKQHGYSLRQVHVALEQNIADFIYEFQRLVFIHLMPIAFLGALIFYYGEFTPAIAEFLSLFALIFALSPLLFLGISFFVAMLQVYERVRKKSLLRANFFNFWIWIHLFVILLIIISKVLVQPSELPFQKAYFKALNDGVFNLLIIATMNAIFGVTGRMVAREKFPILLHLSIPLVNSFVAVKILMA | failed |
| MNKHFLETLLQKHQQAGTFPSTSDICRLVTRILLVLFPEQTQAKYKDVADVEIQMGVYQKELTRLLGSMQKDLPAPANELSDAFMNELSVIYDKLLLDIQAILNGDPAARSEFEVIRAYPGFYAIAFYRMAHALYKLNIPLMPRIIMEYAHSKTGIDIHPGATIGKNFYIDHGTGIVIGETAHIGDNVKVYQGVTLGALSVSKDKADTKRHPTIEDNVIIYSGATILGGKTVVGHDSIIGGNVWLTESVQPFTRVYHKAQIEVIIKNADPSLNETENNEEAIRKMKKAESENTKKNS | failed |
| MNKKKKKRTPKPINLNELEEKINILNFMKNDFEIVLQKENEKHSEVSIQYTNKEESSTLERERINIILKELIISCNEKKEHLNNYIKVAKDIIQKNNETIEKEKNDIDKLILQKDEQIKDVEKKIVIVQNFYKDINKGIIQLINNLEVYLRNKMNINIDIKKMNDKTIELTNVQKLNKQQECKENEFKNILYMSIDKYNEQISIIRTFIKKIKLKQEIDVIKEDNIINTNDDILREPSNNTNEQKEQSHKYDYSHDENENNNFRKYEMINIEEENDKENNVKGDNKLIINKNNVDSFDEDDSYDEDDSCDEDNSCDEDNSCGEVNSCGEDDSYDEDDSYDEDDSYDEDNSYDEDNSYDEDNRCGEKLEKEQLHNLQDDKKNYTLKKNINETLLSSLDDDESKFSSSNSDTTKSFEVYKNKEKDKDKEIYNYLYSEEETYEQKKNNESSNSDDDDNKKEHFIKKFTTLKTNKNILNEDVQFLMDKIKKIDYDYISYFEKKLKYK | failed |
| MNKKRIVFGLLSFFLPIFLVFGGLLFFLLLLTSTSDTSKNDCIQPSINNPTDATDTPKSIEQFVKSHKDAYLLSWKAGGFLPSASISQTMVENGFNFTNPSGTSFWQAHNMGGVKTSKKEDFPVTLATFGQDSVDISGTKPGSNVGDGTGGAYTWFKDYNAGIVGKAEFMAHQTLYTGAINNTDGLSTLSAIYSGGWATDPTYLMKLQATYNSLGKQFQWLDQEAIQKYGNAPFKKSELVLNIPGKSPITNEKYGKNSDCVVTSDTSDQVTGQNTAPSLEVPSAYKGKLTLPPIDSNDYAGNNYPFGQCTWYAYNRMAQIGKPIEWFSGDGGNGAGWANSARAKGYTVVKVKPSVGWAASMQGGIGGSAPPYGHVAVVEYVNSDGSILVSEANVINQGSGTRSWRVLDRATVEQIDFIQGKGALEHHHHHH | failed |
| MNKPLVVDLDGTLLRSDMLIESVLAYSKKGIRPVFHLPFWLLEGKAILKARLADRVDLSVEVLPYNTEVIDFIKQAKREQRQIVLATGTHKMFAEKIAEHLGLFDLVIATENGINLSARSKRDCLIDQFGEKGFDYIGNSHDDVVVWNAADKTYLADPEPGVKKKMDLQGGVARVFQTRQSSLRTFFRALRPHQWLKNLLLFIPLIASHQLTNITLIADALLAFVLFSMTASSGYLINDLLDLESDRYHPRKRNRPLASGELPILIGLISAPLLFLASLSASLILLSATFTISLVTYYLLSVVYSQYLKKIPLVDTIMLAGLYTVRILAGAFACSIIPTFWILAFSVFFFLSLAMLKRYAELLDLQTKGDTAKTSGRGYYPSDIQIIASLGTASGYLSILVLALYIQDARTIAMYKTHELIWLACPILLFWISRMWMLTHRGQMHDDPVLFAIKDRTSLITATLFACIFFLAILV | failed |
| MNKPTLGIDLDTTLNTLDREWVKRYNEIYKDKLLPSDIKGWDIENYVKPECGKKIYDILKEPHFFRNLGVQPFAETALEELTSIFNIYIVSATHYKVCEDKGNWIKEKFPFISYQNIIFCHNKGLVHLDILIDDNPLNLENFKGNKILFDAHHNKSENRFVRARDWYEAKALCESLKDFL | failed |
| MNKQLRNNMIVLLFAVILSLILNVAHILLPFMFGPIIASVICVRVFRLEIEWPFWLSQIGLVLLGVQIGSTFTKNVILDIKDDWLTIILITVMLLALALVIAFFFKKIAKVNTETAILSVIPGALSQMLIMAEENKRANIMVVSLTQTSRIIFVVILVPFISYFFRDNGSNGSLEKATTKVLTDAVSIPQILLLALAVFIVYIIMSKINFPTKQLLAPIIVLISWNLITGVTFTLDNYIIASAQVIYMIRIGLQIAKLLDQMKGRIAVAIAFQNVLLILLAFIMVLLISMVSNHSVNELFLGAAPGGMSQIVLVAIETGADVALISSYHIFRIFFILFLIAPLLGHLLKYIDRSHS | failed |
| MNKQQQSMNTNRSAQEMSETSPEYEQKYQQAIDCIENQEYGQAISILDELAGEASRDAKLRYARAVALLSNGEYRRAGTDLAFTVALDRSNLEAYRHLGFVLLTMGKEEAAIKVLEEALRRDPCFVEAWCVLADVHMDLGEHDKALDALDRAHELQPGNAEVHCKLAMYYMSRGDMRGLRAEYEVLREIEPDVAAQIAELLP | failed |
| MNKRKMIGAHSALALLALAVSQVHAADPTVQQGREDRAEKAAQKTLAKMTMEEKLAYIGGTGGWDVKPLTNYGVPQIHGADGGVGVRYTSEGNDQGVVYPSGPNLAATFNPRRAIDLGRALGYDTATGGYQFITGPGVNLYRMPYGGRAFEYLSGEDPFLGASLAPGVINGIQSRGVWANAKHYAANDQESNRFNLDQKMPERVLREMSLPAFESSSKNGNVAMMMCAFQKVNGDFACESEHLIAQILKKEWGYKGFVQSDYNAVVHGFEAARAGTDLDMMGYQMNSSVLKPHLDAGDLSAATIDDKVRRILKQIYLYKFDSKAPLTTHNMNSSTSNKVALNAAREGIVLLKNQGDLLPLDKQKVKKIAVVGTLAKYAPPTGFGSANVMASHYVSELSGLQQMAPNAKVEFIDGLSLDPSTSAWNTTDAAGNSVQGMKVEYFSNTNWSGDAAVTRTEQHVDLDWANDKNLPFESNTSTSDPYTTKGSTAGELNGDTSSTSIRYTGKITPTQSGEQVFKVRADGAVRLWVNGKKIIDNGDGKPLPGNSIPPTIPEFAKINLEAGQSYDVKLEYSRRAGYLSTMGGLVGVQLSSASLNAPQDLSGYDAVVVAVGNSNEYEGEGFDHSFDLPEFQNELIQNIAKVNPNTVVTMYGGTGLKMSDWIEQVPVALHAFYPGQNGGQALAEILFGKINPSGKLPISIERNIEDNPAYASFPKFDNQNTLAEMDYKDDLMLGYRGYEKKGIKPLYPFGYGLSYTTFGYSNIKVTPGVAVGNTPIKVSFDLTNTGKVGGSEVAQLYVGQQNPKVERPIKELKGYKKVFLKPGESKRVTIELNDRSLAYFDVKTNQWVVDADTFNLSLGGSSQDIRLNAKLVNSFRQELSTTTSNPLPRSALNSVLVEKPPVKTGGVFQQTVE | failed |
| MNKRVVKVEYIFMAFALFFGVLFAVINAPFQDPDEPIHFYRAYQISTGQMFEQKNNSGIGGYLPQNLIKTSENLSEDIKAKSNKKQDINKIKYYLNLPLNKNKVAFNDFRSATIYSDIVYIPQSIGINLAKIFRASALYMMYFGRIANLICWTIIVFFSVKLIPFKKNLMAFLALTPMNLYQAASLSADAMTNSMAFLSIALVLRYAFGEEEAKLTKRQIVTMIIAFTLLAFSKRIYFVMCILFFIIPIKKFNSKKDYIGTFVIMLGACLMSLVTVSVISKILAIKVSAGSYTPGQMEFVLSHPITYIHILLRTFHFKMSFYAISFIGVFGWLDTRLPLNLYLFYGVALVLIALFEHTLIEKNKDRIIMFIVFIINVGLIMSALYVSWTPKAANIIEGIQGRYFIPIIPLLGCFIGVKANKSRNVYSKVVLAISTFTILTYSVLQLLLRFYGIRIL | failed |
